T1: monomeric mouse LAG3-EC (strep-tagged) (mouse, UniProt Q61790 24-422, limits assumed)
T1 construct: It was immobilized on a streptavidin-coated biosensor; also called mouse LAG3 soluble protein; not shown: C-terminal strep tag
T1 sequence: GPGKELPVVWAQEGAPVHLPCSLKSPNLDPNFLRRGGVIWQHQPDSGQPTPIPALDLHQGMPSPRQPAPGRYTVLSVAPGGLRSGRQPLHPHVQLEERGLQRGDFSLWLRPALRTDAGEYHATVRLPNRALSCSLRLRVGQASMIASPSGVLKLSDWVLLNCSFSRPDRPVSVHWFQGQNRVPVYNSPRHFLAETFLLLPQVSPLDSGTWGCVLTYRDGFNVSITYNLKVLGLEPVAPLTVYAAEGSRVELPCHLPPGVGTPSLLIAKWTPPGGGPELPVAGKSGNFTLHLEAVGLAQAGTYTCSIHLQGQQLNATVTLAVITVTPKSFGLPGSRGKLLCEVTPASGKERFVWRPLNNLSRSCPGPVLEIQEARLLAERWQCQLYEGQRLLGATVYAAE

T2: mouse LAG3 (wild type), forcibly expressed on DO11.10 or B3Z cells (mouse, UniProt Q61790 24-521)
T2 construct: The whole entry is named; also called mLAG3; mLAG3 WT
T2 sequence: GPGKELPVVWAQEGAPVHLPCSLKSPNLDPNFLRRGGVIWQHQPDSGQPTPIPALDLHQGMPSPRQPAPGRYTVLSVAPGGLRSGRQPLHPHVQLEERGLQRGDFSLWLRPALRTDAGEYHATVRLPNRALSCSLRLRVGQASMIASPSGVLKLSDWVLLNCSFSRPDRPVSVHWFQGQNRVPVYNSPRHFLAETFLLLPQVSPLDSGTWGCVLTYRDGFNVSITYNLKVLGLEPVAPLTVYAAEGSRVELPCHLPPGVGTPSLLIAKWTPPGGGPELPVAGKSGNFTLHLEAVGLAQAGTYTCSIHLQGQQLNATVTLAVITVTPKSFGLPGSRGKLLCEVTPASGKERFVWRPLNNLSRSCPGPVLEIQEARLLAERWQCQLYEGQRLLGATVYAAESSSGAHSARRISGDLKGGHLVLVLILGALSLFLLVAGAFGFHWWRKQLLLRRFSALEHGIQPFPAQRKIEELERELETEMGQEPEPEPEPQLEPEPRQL


Legend:
[1] = target: T1, monomeric mouse LAG3-EC (strep-tagged); assay: biolayer interferometry (BLItz), strep-tagged monomeric mouse LAG3-EC on the biosensor, antibody at 66.67, 200, 666.7 and 2000 nM
Description: (§1) The binding affinity of anti-mouse LAG3 antibodies (TKB58 and C9B7W) to a mouse LAG3 soluble protein was measured by biolayer interferometry. Briefly, cDNA fragments encoding D1 to D4 (LAG3-EC) of mouse LAG3 were amplified by PCR. A strep tag was added to the C-terminus of LAG3-EC. The chimeric cDNA was cloned into an expression vector modified from pEBMulti-Neo (Wako). Plat-E cells were transfected with the plasmid using Avalanche-Omni Transfection Reagent (EZ Biosystems) and the culture supernatant was collected after 48 hours. Monomeric mouse LAG3-EC (strep-tagged) was immobilized on a streptavidin-coated biosensor chip (Pall ForteBio) and binding of anti-mouse LAG3 antibodies at various concentrations was monitored with BLItz (Pall ForteBio). The chips were washed with PBS and the dissociation rates were analyzed. The binding rate constant (ka), the dissociation rate constant (kd), and the dissociation constant […] were calculated with BLItz Pro software. In TKB58, as compared with a case in C9B7W, ka was about 26 times faster and kd was 3.6 times slower.

[2] = target: T1, monomeric mouse LAG3-EC (strep-tagged); assay: biolayer interferometry (BLItz); reference C9B7W
Description: as §1

[3] = target: T2, mouse LAG3 (wild type), forcibly …; assay: flow cytometry of DO11.10-mLAG-3 cells (CD3ε +, LAG-3 +) stained with culture supernatant, detected with anti-FLAG tag antibody
Source text: A nucleic acid encoding the heavy and light chain variable regions of an anti-mouse LAG3 antibody (TKB58) and an anti-mouse CD3s antibody (2C11) was synthesized, amplified by PCR, and was cloned into an expression plasmid vector produced by modifying pEBMulti-Neo (Wako) or pSecTag2/Hygro (Thermo Fisher Scientific), whereby expression plasmids of bispecific molecules 2C11xTKB58 (SEQ ID NO: 31) and TKB58x2C11 (SEQ ID NO: 32) recognizing mouse LAG3 and […] were produced. The expression plasmid was transfected into PlatE cells using Avalanche-Omni Transfection Reagent (EZ Biosystems), and the culture supernatant was collected after 48 hours. BW5147, DO11.10, and DO11.10-mLAG3 cells were stained using the culture supernatant.

[4] = target: T2, mouse LAG3 (wild type), forcibly …; assay: flow cytometry of cells stained with culture supernatant
Source text: A nucleic acid encoding the heavy and light chain variable regions of an anti-mouse LAG3 antibody (TKB58) and an anti-mouse CD8 antibody (YTS169) was synthesized, amplified by PCR, and was cloned into an expression plasmid vector produced by modifying pEBMulti-Neo (Wako), whereby an expression plasmid of a bispecific molecule TKB58xYTS169 (SEQ ID NO: 33) recognizing mouse LAG3 and mouse CD8 was produced. The expression plasmid was transfected into PlatE cells using Avalanche-Omni Transfection Reagent (EZ Biosystems), and the culture supernatant was collected after 48 hours. DO11.10, DO11.10-mLAG3, B3Z, and B3Z-mLAG3 cells were stained using the culture supernatant.

Row | Molecule | Kd [1] [nM] | koff [1] [s⁻¹] | kon [1] [M⁻¹ s⁻¹] | other results
1 | anti-mouse LAG3 antibody C9B7W | 414 | 0.00392 | 9480 | 
2 | anti-mouse LAG3 antibody TKB58 (antibody, V domains shown, Full-form antibody; also called TKB58 antibody; full-form anti-mouse LAG3 antibody) VH: VQLQQSGAELVRPGALVKLSCKASGFNIKDYYMHWVKQRPEQGLEWIGWIDPENGNTIYDPKFQDKASLTADTSSNTAYLQLSSLTSEDTAVYYCAPERGYDYAMDYWGQGTSVTVSS VL: IVLTQSPATLSVTPGDSVSLSCRASQSISNNLHWYQQKSHESPRLLIKYASQSISGIPSRFSGSGSGTDFTLSINSVETEDFGMYFCQQSNSWPQYTFGGGTKLEIK | 4.39 | 0.0011 | 251000 | fold faster ka against C9B7W [2]: ~26 times; fold lower KD against C9B7W [2]: 94 times; fold slower kd against C9B7W [2]: 3.6 times
3 | bispecific molecule 2C11xTKB58 (bispecific antibody, Used as culture supernatant of transfected PlatE cells) DAAQPAREVQLVESGGGLVQPGKSLKLSCEASGFTFSGYGMHWVRQAPGRGLESVAYITSSSINIKYADAVKGRFTVSRDNAKNLLFLQMNILKSEDTAMYYCARFDWDKNYWGQGTMVTVSSGGGGSIVLTQSPATLSVTPGDSVSLSCRASQSISNNLHWYQQKSHESPRLLIKYASQSISGIPSRFSGSGSGTDFTLSINSVETEDFGMYFCQQSNSWPQYTFGGGTKLEIKGGGGSGGGGSGGGGSVQLQQSGAELVRPGALVKLSCKASGFNIKDYYMHWVKQRPEQGLEWIGWIDPENGNTIYDPKFQDKASLTADTSSNTAYLQLSSLTSEDTAVYYCAPERGYDYAMDYWGQGTSVTVSSGGGGSDIQMTQSPSSLPASLGDRVTINCQASQDISNYLNWYQQKPGKAPKLLIYYTNKLADGVPSRFSGSGSGRDSSFTISSLESEDIGSYYCQQYYNYPWTFGPGTKLEIKGGGGSDYKDDDDKNSAVDHHHHHH |  |  |  | binding result [3]: binds
4 | bispecific molecule TKB58xYTS169 (bispecific antibody, Used as culture supernatant of transfected PlatE cells) DAAQPARVQLQQSGAELVRPGALVKLSCKASGFNIKDYYMHWVKQRPEQGLEWIGWIDPENGNTIYDPKFQDKASLTADTSSNTAYLQLSSLTSEDTAVYYCAPERGYDYAMDYWGQGTSVTVSSGGGGSDIVLTQSPAMAMSPGERITISCRASESVSTRMHWYQQKPGQQPKLLIYGASNLESGVPARFSGSGSGTDFTLTIDPVEANDTATYFCQQSWYDPWTFGGGTKLELKGGGGSGGGGSGGGGSEVKLQESGGGLVQPGRSLKLSCAASGFNFNDYWMGWVRQAPGKGLEWIGEINKDSSTINYTPSLKDKFTISRDNAQNTLYLQMSKLGSEDTAIYYCARARGMMVLIIPHYFDYWGQGVMVTVSSTGGGGSIVLTQSPATLSVTPGDSVSLSCRASQSISNNLHWYQQKSHESPRLLIKYASQSISGIPSRFSGSGSGTDFTLSINSVETEDFGMYFCQQSNSWPQYTFGGGTKLEIKGGGGSDYKDDDDKNSAVDHHHHHH |  |  |  | binding result [4]: binds

— US20220227887A1 (ONO PHARMACEUTICAL, published 2022)
